From paper PMC4273445 (eLife, 2014)
Several values for one entry are separate records, joined by “and”; a condition that tells them apart may be missing. Identical values can stand only once.

B4: CFH67, CCP domains 6 and 7 of complement factor H (domain or fragment)
chain: TLKPCDYPDIKHGGLYHENMRRPYFPVAVGKYYSYYCDEHFETPSGSYWDHIHCTQDGWSPAVPCLRKCYFPYLENGYNQNYGRKFVQGKSIDVACHPGYALPKAQTTVTCMENGWSPTPRCI
notes: source: prepared as previously described (Prosser et al., 2007)

Legend:
[1] = target: fHbp V1.1, recombinant His-tagged (Neisseria meningitidis) (UniProt Q9JXV4); test: SPR
[2] = target: T1, CFHR3_(12), the first two (N-terminal) CCP domains of complement factor H-related 3 (human, UniProt Q02985 19-330); test: SPR; details: both partners purified
T1 construct: also called CFHR12
T1 sequence: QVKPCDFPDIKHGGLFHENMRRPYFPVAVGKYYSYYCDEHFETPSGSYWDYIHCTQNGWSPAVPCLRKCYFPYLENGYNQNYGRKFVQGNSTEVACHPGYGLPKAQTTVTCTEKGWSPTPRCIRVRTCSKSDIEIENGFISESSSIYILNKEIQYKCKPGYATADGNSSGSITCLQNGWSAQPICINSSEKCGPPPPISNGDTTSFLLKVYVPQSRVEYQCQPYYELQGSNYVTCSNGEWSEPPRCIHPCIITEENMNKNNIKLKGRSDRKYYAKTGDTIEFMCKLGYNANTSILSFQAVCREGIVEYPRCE

[3] = target: B4; test: SPR; details: both partners purified
[4] = target: T2, factor H binding protein (fHbp) V3.28, recombinant His-tagged (Neisseria meningitidis, UniProt E6MV22 20-274); test: SPR
T2 chain: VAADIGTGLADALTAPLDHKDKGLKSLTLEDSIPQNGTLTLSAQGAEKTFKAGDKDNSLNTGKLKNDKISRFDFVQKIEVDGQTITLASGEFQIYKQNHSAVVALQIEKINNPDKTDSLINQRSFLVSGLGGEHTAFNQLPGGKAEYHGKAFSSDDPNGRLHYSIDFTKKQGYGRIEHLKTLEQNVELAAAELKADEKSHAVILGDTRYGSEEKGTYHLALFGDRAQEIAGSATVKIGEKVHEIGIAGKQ

[5] = target: T3, factor H binding protein (fHbp) V1.1 (N. meningitidis, UniProt Q9JXV4 20-274); test: SPR; details: both partners purified
T3 construct: fHbp variant 1.1; source: recombinant, as in Johnson et al., 2012
T3 sequence: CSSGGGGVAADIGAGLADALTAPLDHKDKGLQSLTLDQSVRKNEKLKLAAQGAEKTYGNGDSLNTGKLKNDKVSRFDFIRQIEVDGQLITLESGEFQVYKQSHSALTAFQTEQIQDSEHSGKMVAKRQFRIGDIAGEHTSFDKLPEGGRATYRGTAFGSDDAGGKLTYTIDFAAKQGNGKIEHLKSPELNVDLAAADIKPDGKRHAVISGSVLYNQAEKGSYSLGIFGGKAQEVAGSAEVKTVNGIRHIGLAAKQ

[6] = target: factor H binding protein (fHbp) V3.28 (N. meningitidis, UniProt E6MV22 20-274); test: SPR; details: both partners purified
[7] = target: T1, CFHR3_(12), the first two (N-terminal) …; test: SPR; details: both partners purified; remark: listed apart in the source
[8] = target: B4; test: SPR; details: both partners purified; remark: listed apart in the source
[9] = target: factor H binding protein (fHbp) V3.28, recombinant His-tagged (Neisseria meningitidis), E6MV22; test: MST
[10] = target: factor H binding protein (fHbp) V3.28 (N. meningitidis), E6MV22; test: SPR
[11] = target: T2, factor H binding protein (fHbp) V3.28, …; test: MST

How did the specificity for CFH over CFHR3 (fold) [1] turn out when “CFHR3_(12), the first two CCP domains of CFHR3 (domain or fragment)” was run?
The specificity for CFH over CFHR3 (fold) was 20 fold.

B1: fHbp V2.21 Val (at V1 Val272) to Ala (natural protein)
chain: VAADIGAGLADALTAPLDHKDKSLQSLTLDQSVRKNEKLKLAAQGAEKTYGNGDSLNTGKLKNDKVSRFDFIRQIEVDGQLITLESGEFQIYKQDHSAVVALQIEKINNPDKIDSLINQRSFLVSGLGGEHTAFNQLPSGKAEYHGKAFSSDDPNGRLHYSIDFTKKQGYGRIEHLKTPEQNVELASAELKADEKSHAAILGDTRYGSEEKGTYHLALFGDRAQEIAGSATVKIREKVHEIGIAGKQ
B1 was tested. Which Kd [2] did it give?
Its Kd is 63.5 nM.

B2: fHbp V2.21 Gln (at V1 Lys191) to Ala (natural protein)
chain: MGPDSDRLQQRRVAADIGAGLADALTAPLDHKDKSLQSLTLDQSVRKNEKLKLAAQGAEKTYGNGDSLNTGKLKNDKVSRFDFIRQIEVDGQLITLESGEFQIYKQDHSAVVALQIEKINNPDKIDSLINARSFLVSGLGGEHTAFNQLPSGKAEYHGKAFSSDDPNGRLHYSIDFTKKQGYGRIEHLKTPEQNVELASAELKADEKSHAVILGDTRYGSEEKGTYHLALFGDRAQEIAGSATVKIREKVHEIGIAGKQLEHHHHHH
B2 was tested. Which Kd [2] did it give?
Its Kd is 2.85 nM.

What about the Kd [3] of the same molecule?
Its Kd is 3.02 nM.

B3: CFHR3_(12), the first two CCP domains of CFHR3 (domain or fragment)
chain: KPCDFPDIKHGGLFHENMRRPYFPVAVGKYYSYYCDEHFETPSGSYWDYIHCTQNGWSPAVPCLRKCYFPYLENGYNQNYGRKFVQGNSTEVACHPGYGLPKAQTTVTCTEKGWSPTPRCIR
For B3, which Kd [4] is on record?
The Kd was 4 nM.

What does the source list for B4?
Kd [5]: 3.56 nM; Kd [6]: 2.74 nM and 2.46 nM and 3.17 nM

B5: fHbp V3.28 Val (at V1 Val272) to Ala (natural protein)
chain: VAADIGTGLADALTAPLDHKDKGLKSLTLEDSIPQNGTLTLSAQGAEKTFKAGDKDNSLNTGKLKNDKISRFDFVQKIEVDGQTITLASGEFQIYKQNHSAVVALQIEKINNPDKTDSLINQRSFLVSGLGGEHTAFNQLPGGKAEYHGKAFSSDDPNGRLHYSIDFTKKQGYGRIEHLKTLEQNVELAAAELKADEKSHAAILGDTRYGSEEKGTYHLALFGDRAQEIAGSATVKIGEKVHEIGIAGKQ
Which results are given for B5?
Kd [7]: 42 nM; Kd [8]: 25.3 nM

B6: complement factor-H related 3 (CFHR3), full length, recombinant His-tagged, Q02985 19-330 (natural protein)
chain: QVKPCDFPDIKHGGLFHENMRRPYFPVAVGKYYSYYCDEHFETPSGSYWDYIHCTQNGWSPAVPCLRKCYFPYLENGYNQNYGRKFVQGNSTEVACHPGYGLPKAQTTVTCTEKGWSPTPRCIRVRTCSKSDIEIENGFISESSSIYILNKEIQYKCKPGYATADGNSSGSITCLQNGWSAQPICINSSEKCGPPPPISNGDTTSFLLKVYVPQSRVEYQCQPYYELQGSNYVTCSNGEWSEPPRCIHPCIITEENMNKNNIKLKGRSDRKYYAKTGDTIEFMCKLGYNANTSILSFQAVCREGIVEYPRCE
For B6, which Kd [9] is on record?
Its Kd is 3 nM.

B7: CFHR3_(12), the first two (N-terminal) CCP domains of complement factor H-related 3, Q02985 19-330 (domain or fragment)
chain: QVKPCDFPDIKHGGLFHENMRRPYFPVAVGKYYSYYCDEHFETPSGSYWDYIHCTQNGWSPAVPCLRKCYFPYLENGYNQNYGRKFVQGNSTEVACHPGYGLPKAQTTVTCTEKGWSPTPRCIRVRTCSKSDIEIENGFISESSSIYILNKEIQYKCKPGYATADGNSSGSITCLQNGWSAQPICINSSEKCGPPPPISNGDTTSFLLKVYVPQSRVEYQCQPYYELQGSNYVTCSNGEWSEPPRCIHPCIITEENMNKNNIKLKGRSDRKYYAKTGDTIEFMCKLGYNANTSILSFQAVCREGIVEYPRCE
B7 was tested. Which Kd [10] did it give?
The Kd was 4.08 nM and 4 nM and 4.25 nM.

B8: complement factor-H related 3 (CFHR3), full length, recombinant His-tagged (natural protein)
chain: QVKPCDFPDIKHGGLFHENMRRPYFPVAVGKYYSYYCDEHFETPSGSYWDYIHCTQNGWSPAVPCLRKCYFPYLENGYNQNYGRKFVQGNSTEVACHPGYGLPKAQTTVTCTEKGWSPTPRCIRVRTCSKSDIEIENGFISESSSIYILNKEIQYKCKPGYATADGNSSGSITCLQNGWSAQPICINSSEKCGPPPPISNGDTTSFLLKVYVPQSRVEYQCQPYYELQGSNYVTCSNGEWSEPPRCIHPCIITEENMNKNNIKLKGRSDRKYYAKTGDTIEFMCKLGYNANTSILSFQAVCREGIVEYPRCE
How did the Kd [11] turn out when B8 was run?
The Kd was 9 nM.
